Results taken from US20200247885A1.

Molecular target: murine P2X purinoceptor 4 (Q9JJX6) (mouse) (UniProt Q9JJX6)
Assay: cell-based or functional assay

Chain of UniProt Q9JJX6 (Q9JJX6 whole entry, form in doubt): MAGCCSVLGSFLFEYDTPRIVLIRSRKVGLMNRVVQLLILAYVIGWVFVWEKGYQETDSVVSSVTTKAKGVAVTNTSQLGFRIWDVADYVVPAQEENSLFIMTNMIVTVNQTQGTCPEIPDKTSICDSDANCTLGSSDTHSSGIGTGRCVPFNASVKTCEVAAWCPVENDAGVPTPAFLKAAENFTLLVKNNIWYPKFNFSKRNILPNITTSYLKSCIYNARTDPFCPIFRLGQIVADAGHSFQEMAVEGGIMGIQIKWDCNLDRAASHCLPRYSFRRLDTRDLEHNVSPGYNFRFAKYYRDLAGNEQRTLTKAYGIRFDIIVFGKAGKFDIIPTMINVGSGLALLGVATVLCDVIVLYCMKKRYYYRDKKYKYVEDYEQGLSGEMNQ

fraction of control current (fraction of control current): 1.08
Substance: hIgG1 NIP 228 TM (antibody)
